Where no end group is shown, it is not given here.

This test addresses cathepsin B (Homo sapiens, UniProt P07858). As to the kind of experiment: square wave voltammetry.
Turning to SSTTNSNSTSNTK-biotin [CTSB BP3, listing 1 of 2 here], binding was characterised by a dissociation constant (Kd) of 11.6 nM.
The result for SSTTNSNSTSNTK-biotin [CTSB BP3, listing 2 of 2 here] reads 50.8 nM; that for WDMWPSMDWKAE (also: displayed on M13 phage pIII) [CTSB 4-1 phage-displayed peptide], 73.7 nM.

Usually Kd stands for the concentration at which binding is half-saturated.

The record behind these values is article PMC10029155 (2023).
